Here are results for one molecule from patent US20230174575A1 (priority 2020, published 2023).

The subject of one data set is SARS-CoV-2. The format is cell-based. The note with it: concentrations ranging from 10 mg/ml to 1.25 mg/ml.
The test system of another data set is Vero cells. Nature of the data set: Cell toxicity against Vero cells by MTT assay. The note with it: MTT assay. A general note: Tetrazolium dyes change colour on reduction, which living cells bring about.

Protocol for Vero cells: Cell toxicity was monitored by establishing the effect of lysozyme HCl against Vero cells (epithelial cells of monkey kidneys). The cells were seeded in 96-well plates at the concentration of 1×10^4 cells/well. 24 hours after seeding, the cells were treated with serial dilutions of lysozyme HCl or chloroquine (as control), in a final volume of 200 in triplicate. After 72 hours' incubation at 37° C. with 5% CO2, cell viability was measured by MTT assay (D'Alessandro, M. et al., Differential effects on angiogenesis of two antimalarial compounds, dihydroartemisinin and artemisone: Implications for embryotoxicity, Toxicology. 241 (2007) 66-74. Doi: 10.1016/j.tox.2007.08.084).
The data were calculated as percentage cell viability using the formula:
[(absorbance of sample−blank of cell-free sample)/mean absorbance of control of media]×100.
The cytotoxicity of ovotransferrin and chloroquine (CQ) was measured by MTT assay, similarly to the method used for lysozyme HCl.

B1: Ovotransferrin: hen egg white protein, product code 501P2001090, produced by Bioseutica BV (protein, UniProt P02789 20-705, looked up)
Ovotransferrin: APPKSVIRWCTISSPEEKKCNNLRDLTQQERISLTCVQKATYLDCIKAIANNEADAISLDGGQAFEAGLAPYKLKPIAAEVYEHTEGSTTSYYAVAVVKKGTEFTVNDLQGKTSCHTGLGRSAGWNIPIGTLLHRGAIEWEGIESGSVEQAVAKFFSASCVPGATIEQKLCRQCKGDPKTKCARNAPYSGYSGAFHCLKDGKGDVAFVKHTTVNENAPDQKDEYELLCLDGSRQPVDNYKTCNWARVAAHAVVARDDNKVEDIWSFLSKAQSDFGVDTKSDFHLFGPPGKKDPVLKDLLFKDSAIMLKRVPSLMDSQLYLGFEYYSAIQSMRKDQLTPSPRENRIQWCAVGKDEKSKCDRWSVVSNGDVECTVVDETKDCIIKIMKGEADAVALDGGLVYTAGVCGLVPVMAERYDDESQCSKTDERPASYFAVAVARKDSNVNWNNLKGKKSCHTAVGRTAGWVIPMGLIHNRTGTCNFDEYFSEGCAPGSPPNSRLCQLCQGSGGIPPEKCVASSHEKYFGYTGALRCLVEKGDVAFIQHSTVEENTGGKNKADWAKNLQMDDFELLCTDGRRANVMDYRECNLAEVPTHAVVVRPEKANKIRDLLERQEKRFGVNGSEKSKFMMFESQNKDLLFKDLTKCLFKVREGTTYKEFLGDKFYTVISSLKTCNPSDILQMCSFLEGK
On to B1, for which the “antiviral activity of ovotransferrin alone” value in the data set with SARS-CoV-2 is recorded as “no antiviral activity was detected”. In addition, in the data set with Vero cells (10 mg/ml), the “viability compared with control cells” value was found to be 100%. Also, the cytotoxicity entry with Vero cells (maximum concentration used (10 mg/ml)) is on record as “non-toxic”.
